Results as given in patent US20150368316A1 (ALBERT EINSTEIN COLLEGE OF MEDICINE OF YESHIVA UNIVERSITY, published 2015).
Numbering of substitutions follows the chain as printed.

T1: human PD-L2-Ig (immobilized) (human, UniProt Q9BQ51 20-219)
T1 construct: also called huPD-L2; huPD-L2-Ig; not shown: Ig part of the fusion
T1 sequence (looked up): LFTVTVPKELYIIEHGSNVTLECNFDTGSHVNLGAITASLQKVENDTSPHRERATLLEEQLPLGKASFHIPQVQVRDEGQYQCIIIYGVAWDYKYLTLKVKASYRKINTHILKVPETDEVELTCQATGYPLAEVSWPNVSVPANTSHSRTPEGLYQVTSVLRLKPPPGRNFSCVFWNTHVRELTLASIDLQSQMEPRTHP

T2: mouse PD-L2-Ig (mouse, UniProt Q9WUL5 20-219)
T2 construct: also called mPD-L2-Ig; not shown: Ig part of the fusion
T2 sequence (looked up): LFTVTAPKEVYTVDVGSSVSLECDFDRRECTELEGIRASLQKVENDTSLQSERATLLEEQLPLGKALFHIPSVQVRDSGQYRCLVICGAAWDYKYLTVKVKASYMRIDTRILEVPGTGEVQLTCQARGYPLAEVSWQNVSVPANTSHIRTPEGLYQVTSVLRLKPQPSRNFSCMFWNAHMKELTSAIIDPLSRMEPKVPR

B1: mouse PD-1 (wild type) (receptor, UniProt Q02242 34-150, looked up)
chain: SLTFYPAWLTVSEGANATFTCSLSNWSEDLMLNWNRLSPSNQTEKQAAFCNGLSQPVQDARFQIIQLPNRHDFHMNILDTRRNDSGIYLCGAISLHPKAKIEESPGAELVVTERILE
notes: also called m PD-1
B2: mouse HA PD-1 (high-affinity mutant) (receptor, UniProt Q02242 34-150, looked up)
chain: B1 chain with A99L
notes: also called m HA PD-1

What was measured:
Experiment in all cases: Kd from fitting (SPR)
[1] = biological target: T3, human PD-L1-Ig (immobilized) (human, UniProt Q9NZQ7 19-238)
T3 construct: also called huPD-L1; huPD-L1-Ig; not shown: Ig part of the fusion

[2] = biological target: T1, human PD-L2-Ig (immobilized)
mouse PD-L2-Ig = biological target: T2, mouse PD-L2-Ig
mouse PD-L1-Ig = biological target: T4, mouse PD-L1-Ig (mouse, UniProt Q9EP73 19-238)
T4 construct: also called mPD-L1-Ig; not shown: Ig part of the fusion
T4 sequence (Q9EP73 19-238): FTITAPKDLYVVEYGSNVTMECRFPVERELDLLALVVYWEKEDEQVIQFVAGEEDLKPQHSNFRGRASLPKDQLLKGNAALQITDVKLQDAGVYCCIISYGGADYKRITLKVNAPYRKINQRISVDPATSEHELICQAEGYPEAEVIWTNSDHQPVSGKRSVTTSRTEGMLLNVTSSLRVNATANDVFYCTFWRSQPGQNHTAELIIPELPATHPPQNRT

T3 sequence (Q9NZQ7 19-238): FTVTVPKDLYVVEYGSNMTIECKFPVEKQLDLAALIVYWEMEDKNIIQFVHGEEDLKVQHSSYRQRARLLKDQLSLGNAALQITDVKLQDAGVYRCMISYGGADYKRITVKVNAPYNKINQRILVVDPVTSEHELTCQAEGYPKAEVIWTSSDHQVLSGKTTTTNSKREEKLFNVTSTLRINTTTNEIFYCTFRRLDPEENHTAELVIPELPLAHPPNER

Binder	Kd [1] [nM]	Kd [2] [nM]	Kd (mouse PD-L2-Ig) [nM]	Kd (mouse PD-L1-Ig) [nM]
B1	4020	10700	2800	–
B2	480	1180	470	2780
